Results from US20260069656A1, “Nutritive Polypeptides and Formulations Thereof, and Methods of Production and Use Thereof” (Axcella Health Inc., priority 2013, published 2026).

B1: SEQID-00601: protein of the 168 nutritive polypeptide library (protein, listed as Agaricus bisporus)
chain: MTRSWEPGTQYNLGDVVEYNGDEYKIIQAHSSQSDWAPDRTPALWGKLPHRHHQQGQYQQQQECQPQQPQKTCYDYGKQEQAPQHSDSKEKKNWFGNITESQKQALEVGGGVALGAGLLGGAFAAWKHHQHKEEAHDSFEAWANAARSRAEEFRAKGPQGPATWVYNEGKHIPEQAILVGTEHNWNLYICRAYCDGGVQIGKASDVFKKGAVIGYKEDEHHLDKYEILLGDMRGLKWVQTGNSLDLASLGATPVEGGYENDHTRLYIARAFHKGAKHPGKVSERLDGAYIPYDGKEKCVKEYEVLCYL
modifications: var. bisporus; strain H97 / ATCC MYA-4626 / FGSC 10389
notes: protein of the 168 nutritive polypeptide library
B2: SEQID-00502: protein of the 168 nutritive polypeptide library (protein)
chain: MASQSNTKSVHDFTVKDARGNNVNLADYKGKVLLIVNVASQCGLTNSNYTELNQLYEKYKGKGLEILAFPCNQFGAQEPGTNEEIVEFACTRFKAEFPIFDKVDVNGDNAAPLYKFLKSSKGGLFGDSIKWNFSKFLVDKDGNVVDRYAPTTSPLSIEKDIKKLLDA
modifications: Glycine max
notes: as for B1
B3: SEQID-00605: nutritive polypeptide naturally produced in Mushroom, recombinantly expressed in E. coli (protein, listed as Agaricus bisporus)
chain: MLEFTLNDGNRIPAIAFGTGTALYNQDASAFVRLAIETGITHLDGAQMYENEETLGKGIKSSGKPRSELFITTKLHILKPGQTVRETLVESLGKIGVDYVDLFLIHDPTANRKEATLSEIWSQLEALKNEGLTKSIGVSNFKVEDLNEILPGAKIIPAVNQIEFHPYVLKAASPIIELCKAKGIIVASYGGQTPIVRATDGPLKDLLPKIRERLEQTRGSPVTEGQVLTKWLLQKNVIAISTSSKESRIKEFLSTVDVPDLTKQEIESIDNAGSTIHKRIYMKHIFNE
modifications: var. bisporus; strain H97 / ATCC MYA-4626 / FGSC 10389
notes: nutritive polypeptide naturally produced in Mushroom, recombinantly expressed in E. coli
B4: SEQID-00485: nutritive polypeptide naturally produced in Chickpea, recombinantly expressed in E. coli (protein, listed as Cicer arietinum)
chain: MTKTGYINAAFRSSRNNEAYLFINDKYVLLDYAPGTSNDKVLYGPSFVRDGYKSLAKTIFGTYGIDCSFDTEYNEAFIFYENFCARIDYAPHSDKDKIISGPKKIADMFPFFKGTVFENGIDAAFRSTKGKEVYLFKGDKYARIDYLTNRLVQNIKSISDGFPCLRGTIFEAGMDSAFASHKTNEAYLFKGEYYARINFTPGSTNDIMGGVKKTLDYWPSLRGIIPLE
B5: SEQID-00511: protein of the 168 nutritive polypeptide library (protein)
chain: MVLFGFGKKKSLPKPEEALPGRDRVMSVPDRHYINGNPLKPPFPEGMEQAVFGLGCFWGAERKFWQQQGVFSTAVGYAGGYTKNPTYEEVCSGMTGHTEVVLVVFDPKVISYTDLLKLFWESHNPTQGMRQGNDTGTQYRSAIYTYSDEQQRLALASRDRYQQALSAASYGEITTEIAPAQEFYYAEAYHQQYLGKNPNGYCGLGGTGVGCPAMTETSV
modifications: Arthrospira platensis C1
notes: as for B1
B6: SEQID-00606: protein of the 168 nutritive polypeptide library (protein)
chain: MASEGDHHHHHHHHQDHDHHHHDHDHHHHHDGEGETNSWVGKDGKVYHSHDGLAPHSHEPIYSPGYFTRRAPPLLNRNFNERAFTVGIGGPVGTGKTALMLALCELLRENYSLAAVTNDIFTKEDGEFLVKHKALPEERIRAVETGGCPHAAIREDISINLGPLEELSNLFKADILLCESGGDNLAANFSRELADYIIYIIDVSGGDKIPRKGGPGITQADLLVINKTDLAPAIGADLAVMQRDALRMRDGGPFVFAQVKHKIGVEEIGNLVLQAWEAATGNKRH
modifications: Glycine max
notes: as for B1
B7: SEQID-00647: protein of the 168 nutritive polypeptide library (protein)
chain: MALSKIEEARQLNDDDLSEQILEIKKQLANLRLLKATGRLEKPHEIRHTRHRLSQLLTVERERQLPNQSPA
modifications: Arthrospira platensis C1
notes: as for B1

Assay: Thermostability, ProteoStat Thermal Shift Stability Kit, temperature of aggregation
Assay type: physicochemical
Conditions: pH 2.8; NS = protein not soluble
Method in brief: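 Proteins at ~10 mg/ml in citric acid/dibasic sodium phosphate buffer, pH 2.8 to 7.1, with ProteoStat TS detection reagent. Heated 25 °C to 95 °C at 0.5 °C per 30 sec, fluorescence monitored with a Texas Red filter.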

B1 and B2 are the same in “Tagg pH 2.8” value: 95 for the first, 95 for the second.

Same assay, conditions: pH 3.7; NS = protein not soluble

B1 and B2 are the same in “Tagg pH 3.7” value: 95 for the first, 95 for the second.

Same assay, conditions: pH 4.3; NS = protein not soluble

B1 and B2 are the same in “Tagg pH 4.3” value: 95 for the first, 95 for the second.

Same assay, conditions: pH 4.6; NS = protein not soluble

First: B3
Second: B2
The “Tagg pH 4.6” value of the first is lower: 40.5 for the first, 95 for the second.

Same assay, conditions: pH 5.0; NS = protein not soluble

Going from B3 to B2, the “Tagg pH 5.0” value rises from 33.5 to 77.

In the case of B4, the “Tagg pH 5.0” value is reported as 31.5.

Same assay, conditions: pH 5.6; NS = protein not soluble

Going from B3 to B2, the “Tagg pH 5.6” value rises from 37 to 77.

With B4 the “Tagg pH 5.6” value was 34.5.

Same assay, conditions: pH 6.0; NS = protein not soluble

Going from B3 to B5, the “Tagg pH 6.0” value falls from 44.5 to 39.5.

First: B2
Second: B4
The “Tagg pH 6.0” value of the first is higher: 76.5 for the first, 36 for the second.

Same assay, conditions: pH 6.5; NS = protein not soluble

First: B3
Second: B1
The “Tagg pH 6.5” value of the first is lower: 38.5 for the first, 45.5 for the second.

Compared with B5, B2 is higher in “Tagg pH 6.5” value: 45.5 for the first, 78.5 for the second.

In the case of B4, the “Tagg pH 6.5” value is reported as 36.5.

Same assay, conditions: pH 7.1; heated 25° C. to 95° C.; NS = protein not soluble

First: B3
Second: B1
The “Tagg (pH 7.1)” value of the first is lower: 39 for the first, 48.5 for the second.

Going from B5 to B2, the “Tagg (pH 7.1)” value rises from 42 to 95.

In the case of B4, the “Tagg (pH 7.1)” value is reported as 36.

Same assay, conditions: pH 7.1; heated from 25° C. to 95° C.

In the case of B6, the “Tagg (pH 7.1)” value is reported as 95.

Assay: pH solubility screen in Citric Acid / Dibasic Sodium Phosphate buffers
Assay type: physicochemical
Conditions: lower pH of range
Experimental: pH Solubility. […] Protein was either lyophilized and then resuspended in buffer cocktail mixtures, or concentrated and then spiked into buffer cocktail mixtures at a final protein concentration of 5 to 30 mg/ml. As a control, protein was also dissolved in a solution of 8 M urea. Protein solutions were shaken for 10 min at room temperature. Turbidity of proteins was determined by measuring the absorbance of protein solutions at 650 nm. The protein solution was then centrifuged for 10 min at 1100×g to pellet undissolved or precipitated protein. The soluble protein fraction (supernatant) was sampled and protein concentration was measured by one or more of the following methods: Coomassie Plus Protein Assay (Pierce), Chip electrophoresis, gel electrophoresis, and/or absorbance at 280 nm. The pH range over which select proteins remained greater than 80% soluble as determined by Bradford and the A650 value are listed in Table E31C.

B3 and B5 are the same in “pH Range where Protein is >80% detected as Soluble and A650 <1 OD: Low” value: 5.6 for the first, 5.6 for the second.

First: B2
Second: B4
The “pH Range where Protein is >80% detected as Soluble and A650 <1 OD: Low” value of the first is higher: 7.1 for the first, 4.6 for the second.

Same assay, conditions: other pH where soluble

B2 and B4 are the same in “pH Range where Protein is >80% detected as Soluble and A650 <1 OD: Other” value: 2.8 for the first, 2.8 for the second.

Same assay, conditions: upper pH of range

B3 and B5 are the same in “pH Range where Protein is >80% detected as Soluble and A650 <1 OD: High” value: 7.1 for the first, 7.1 for the second.

For B4, the “pH Range where Protein is >80% detected as Soluble and A650 <1 OD: High” value was 7.1.

Assay: Intact half-life during simulated gastric fluid (SGF) digestion
Conditions: SGF pH 1.5, pepsin:polypeptide 1:20 w/w, 37° C.; produced in E. coli unless otherwise noted
Experimental: Nutritive polypeptide half-life during simulated digestion. One metric for quantifying the breakdown of polypeptides from an intact form to smaller peptides is the intact half-life. In this experiment the nutritive polypeptide was exposed to a series of proteases that are active in the stomach (pepsin) and intestine (trypsin and chymotrypsin), and the presence of intact protein was measured over time. Specifically, the nutritive polypeptide was first treated at a concentration of 2 g/L with simulated gastric fluid (SGF) (0.03 M NaCl, titrated with HCl to pH 1.5 with a final pepsin: polypeptide ratio of 1:20 w/w) at 37° C. Time points were sampled from the reaction and quenched by addition of 0.2 M Na2CO3. […] Time points were sampled from the reaction and quenched by addition of Trypsin/Chymotrypsin Inhibitor (Sigma) solution until 240 min.
Time point samples were analyzed for intact protein by chip electrophoresis, polyacrylamide gel electrophoresis, or western blot. For chip electrophoresis (Labchip GX II), samples were analyzed using a HT Low MW Protein Express LabChip® Kit (following the manufacturer's protocol). A protein ladder was loaded every 12 samples for molecular weight determination (kDa) and quantification. For polyacrylamide gel electrophoresis, samples (1 μg) were separated on a NuPAGE® Novex® Bis-Tris Precast gel (Life Technologies) according to the manufacturer's protocol. The gel was stained using SimplyBlue™ SafeStain (Invitrogen) and imaged using a Chemidoc XRS+ (BioRad) or transferred onto nitrocellulose membranes using the iBlot® Dry Blotting System (Life Technologies) and iBlot® Western Detection Kit (Life Technologies) according to the manufacturer's protocol. Proteins were detected by blotting with Anti-His [C-term]-HRP antibody diluted 3:5000 in Blok™-PO Blocking Buffer using the SNAP i.d.® Protein Detection System (Millipore) according to the manufacturer's protocol. Blots were treated with Luminata Classico Western HRP Substrate (Millipore) according to the manufacturer's protocol and imaged using chemiluminescent detection on the Molecular Imager® Gel Doc™ XR+ System (Bio-Rad). Quantification of intact protein was determined by densitometry using ImageLab (BioRad). For all analysis methods the relative concentration of the polypeptide at each time point (if detected) was plotted overtime and fit to an exponential curve to calculate the intact half-life.
Specifically, the t=0 (enzyme-free control) and t=2 min samples from the SGF digest were analyzed for intact protein as described by chip electrophoresis, SDS-PAGE, western blot, and/or LC-MS/MS. Relative quantities of polypeptides at each time point were determined and the percentage of intact protein remaining at t=2 was determined.

B3 and B1 are the same in “SGF Half-life (t½)” value: 0.2 min for the first, 0.2 min for the second.

B7 and B5 are within 1.5-fold of each other in “SGF Half-life (t½)” value: 0.2 min for the first, 0.3 min for the second.

Going from B2 to B6, the “SGF Half-life (t½)” value falls from 0.6 min to 0.3 min (2-fold).

With B4 the “SGF Half-life (t½)” value was 0.5 min.

Same assay, conditions: purified proteins, chip electrophoresis, SGF

First: B3
Second: B1
The “Half-life” value of the first is 2-fold lower: 0.1 min for the first, 0.2 min for the second.

B7 and B5 are within 1.5-fold of each other in “Half-life” value: 0.2 min for the first, 0.3 min for the second.

Compared with B2, B6 is 2-fold lower in “Half-life” value: 0.6 min for the first, 0.3 min for the second.

In the case of B4, the “Half-life” value is reported as 0.5 min.

Assay: SGF digest of the 168 nutritive polypeptide library, intact protein by LC-MS/MS spectral counts
Assay type: in vitro ADME
Conditions: proteins detected in the 168 nutritive polypeptide library
Experimental: Nutritive polypeptide intact half-life determination in a complex mixture. The in vitro intact half-life of multiple polypeptides in a complex mixture was determined using the simulated gastric in vitro digestion described above. Briefly, the 168 nutritive polypeptide library was generated as described herein by cloning, transforming, and expressing a gene library encoding 168 proteins as a single mixture. The recombinantly expressed proteins were purified from host cell proteins by IMAC purification as described herein.
The 168 Protein Library was treated with SGF as described above and the t=0 and t=10 min samples were analyzed for intact protein by LC-MS/MS. To begin, 10 μg of sample was loaded onto a 10% SDS-PAGE gel (Invitrogen) and run approximately 5 cm into the gel. The gel was excised into ten fractions from 100 kD to the dye front and the gel slices were processed by washing with 25 mM ammonium bicarbonate, followed by acetonitrile. Gel fractions were then reduced with 10 mM dithiothreitol at 60° C., followed by alkylation with 50 mM iodoacetamide at room temperature. Finally, the samples were digested with trypsin (Promega) at 37° C. for 4 h and the digestions were quenched with the addition of formic acid. The samples were then analyzed by nano LC/MS/MS using an EasynLC 1000 HPLC system interfaced to a ThermoFisher Q Exactive. Peptides were loaded on a trapping column and eluted over a 75 μm analytical column at 350 nL/min; both columns were packed with PepMap C18 3 μm resin (ThemoFisher). A 1 hour gradient was employed. The mass spectrometer was operated in data-dependent mode, with MS and MS/MS performed in the Orbitrap at 70,000 FWHM resolution and 17,500 FWHM resolution, respectively. The fifteen most abundant ions were selected for MS/MS. Data were searched against an appropriate database using Mascot to identify peptides. Mascot DAT files were parsed into the Scaffold software for validation, filtering and to create a nonredundant list per sample. Data were filtered at 1% protein and peptide false discovery rate (FDR) and requiring at least two unique peptides per protein. A full list of detected proteins and their spectral counts (SpC) was generated and reported as a function of each collected gel fraction. SpC are a count of the number of spectra identified for a given protein and are used as a measure of relative protein abundance (Liu, H. et al., Analytical Chemistry 2004, 76:4193-4201). To calculate the percentage of intact protein remaining at the 10 min time point of the SGF digest the number of SpC representative of intact peptide in the t=10 min sample were divided by the number of SpC representative of intact peptide in the t=0 min sample. The number of SpC representative of intact peptide was defined as the sum of the SpC in the fraction with the highest number of SpC assigned to that protein in the t=0 min sample and the two flanking fractions.

Going from B3 to B1, the “% Remaining at 10 min” value rises from 0% to 1.1%.

Compared with B7, B5 is lower in “% Remaining at 10 min” value: 12% for the first, 4.3% for the second.

First: B2
Second: B6
The “% Remaining at 10 min” value of the first is higher: 9.7% for the first, 0% for the second.

For B4, the “% Remaining at 10 min” value was 0%.

Assay: Solubility of proteins (lyophilized/reconstituted or ultrafiltered)
Conditions: produced in E. coli unless otherwise noted
Experimental: Solubility. […] Protein samples were dried by lyophilization on a FreeZone Freeze Dry System (Labconco) using the manufacturer's standard protocol and then resuspended in buffer to the desired concentration. Centrifugal and tangential ultrafiltration were used to selectively remove buffer from the protein sample until the desired concentration was reached. Centrifugal ultrafiltration of protein solutions was performed by centrifugation (10,000×g) of 10 mg of protein in an Amicon centrifugal filter (Millipore) with a molecular weight cutoff of 3 kDa, 10 kDa, or 30 kDa, depending on the protein size, until the desired contrentration was reached. Ultrafiltration of protein solutions was performed on Hydrosart ultrafiltration cassettes (Sartorius Stedim, Bohemia, NY) with a molecular weight cutoff of 3 kDa, 10 kDa, or 30 kDa, depending on the protein size, at a cross flow rate of 12 L/m2/min. For most processes, transmembrane pressure was maintained at 20 psi and performed until the desired contrentration was reached.
The protein concentration of the above samples was measured by one or a combination of the following methods: Coomassie Plus Protein Assay, absorbance at 280 nm (A280), and total amino acid analysis. Coomassie Plus Protein Assays (Pierce) were performed according to the manufacturer's protocol. Absorbance at 280 nm was measured on a Nanodrop 2000 UV-Vis spectrophotometer. Protein concentration was determined using the A280 value and molar extinction coefficient, which was calculated by primary amino acid sequence using ProtParam (Gasteiger, Elisabeth, et al. The proteomics protocols handbook. Humana Press, 2005. 571-607.). Total amino acids were analyzed by HPLC after acid hydrolysis as described in Henderson, J. W., et al. Agilent Technologies (2010).

With B4 the “Solubility” value was 99 g/L.
